# Source: PMC5364394
# Target: FLAG-SF2/ASF purified (human, UniProt Q07955 1-248)
# Experiment: EMSA
# Details: protein: recombinant; tags: FLAG; label: IRDye-800
# FLAG-SF2/ASF purified, sequence (Q07955 whole entry): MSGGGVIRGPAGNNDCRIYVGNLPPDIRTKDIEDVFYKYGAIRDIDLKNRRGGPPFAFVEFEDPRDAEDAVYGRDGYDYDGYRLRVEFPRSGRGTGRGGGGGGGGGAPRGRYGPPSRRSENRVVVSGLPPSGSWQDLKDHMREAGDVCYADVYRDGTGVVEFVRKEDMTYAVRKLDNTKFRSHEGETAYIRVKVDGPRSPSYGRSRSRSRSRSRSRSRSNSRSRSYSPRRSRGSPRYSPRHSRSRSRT
binder,measurement,value
"GACAUACUGACAAGGAUGUC (ssRNA) [H7N9-NS-529-548 (NEP-ESE, 540A, WT)]",binding result,binds
